Measurements taken from publication PMC4731831, “Better than Nature: Nicotinamide Biomimetics That Outperform Natural Coenzymes” (Journal of the American Chemical Society, 2016).

Substrate: NC(=O)C1=CN([C@@H]2O[C@H](COP(=O)(O)OP(=O)(O)OC[C@H]3O[C@@H](n4cnc5c(N)ncnc54)[C@H](OP(=O)(O)O)[C@@H]3O)[C@@H](O)[C@H]2O)C=CC1
Experiment: purified protein
Settings: reduction of cinnamaldehyde; varied: cofactor

B1: NtDBR (Nicotiana tabacum) (protein)
chain: MAEEVSNKQVILKNYVTGYPKESDMEIKNVTIKLKVPEGSNDVVVKNLYLSCDPYMRSRMRKIEGSYVESFAPGSPITGYGVAKVLESGDPKFQKGDLVWGMTGWEEYSIITPTQTLFKIHDKDVPLSYYTGILGMPGMTAYAGFHEVCSPKKGETVFVSAASGAVGQLVGQFAKMLGCYVVGSAGSKEKVDLLKSKFGFDEAFNYKEEQDLSAALKRYFPDGIDIYFENVGGKMLDAVLVNMKLYGRIAVCGMISQYNLEQTEGVHNLFCLITKRIRMEGFLVFDYYHLYPKYLEMVIPQIKAGKVVYVEDVAHGLESAPTALVGLFSGRNIGKQVVMVSRE
Km: 91 µM
kcat: 40 min^–1
